Measured values reported in publication doi:10.1101/538884 (bioRxiv, 2019).

Molecular target: the molecule itself
Assay: SEC

B1: HEV^440-691 (hepatitis E virus ORF1 residues 440-691) (domain or fragment, Hepatitis E virus (HEV), UniProt P33424 440-691, looked up)
chain: AGFHLDPRVLVFDESAPCHCRTAIRKAVSKFCCFMKWLGQECTCFLQPAEGVVGDQGHDNEAYEGSDVDPAESAISDISGSYVVPGTALQPLYQALDLPAEIVARAGRLTATVKVSQVDGRIDCETLLGNKTFRTSFVDGAVLETNGPERHNLSFDASQSTMAAGPFSLTYAASAAGLEVRYVAAGLDHRAVFAPGVSPRSAPGEVTAFCSALYRFNREAQRLSLTGNFWFHPEGLLGPFAPFSPGHVWESA
Does B1 bind?
Result: binds
